Assay results taken from publication PMC6821365.

Key:
Assay in all cases: ITC
[1] = biological target: T1, yedK W67A (Escherichia coli (gene from BL21 …, UniProt P76318 2-222, W67A))
T1 sequence: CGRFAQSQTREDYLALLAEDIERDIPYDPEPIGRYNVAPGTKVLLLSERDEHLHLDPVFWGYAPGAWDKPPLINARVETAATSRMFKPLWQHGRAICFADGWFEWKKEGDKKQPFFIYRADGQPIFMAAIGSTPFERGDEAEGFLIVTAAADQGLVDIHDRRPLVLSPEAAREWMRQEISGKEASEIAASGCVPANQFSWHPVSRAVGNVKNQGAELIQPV

[2] = biological target: T2, yedK W68A (Escherichia coli (gene from BL21 …, UniProt P76318 2-222, W68A))
T2 sequence: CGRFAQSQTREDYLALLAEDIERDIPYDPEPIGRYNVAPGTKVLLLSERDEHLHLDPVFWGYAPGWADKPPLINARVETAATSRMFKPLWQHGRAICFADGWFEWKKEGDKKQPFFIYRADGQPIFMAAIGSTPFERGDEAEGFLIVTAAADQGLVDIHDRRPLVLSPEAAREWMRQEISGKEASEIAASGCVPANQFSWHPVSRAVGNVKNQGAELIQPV

[3] = biological target: T3, yedK K70A (Escherichia coli (gene from BL21 …, UniProt P76318 2-222, K70A))
T3 sequence: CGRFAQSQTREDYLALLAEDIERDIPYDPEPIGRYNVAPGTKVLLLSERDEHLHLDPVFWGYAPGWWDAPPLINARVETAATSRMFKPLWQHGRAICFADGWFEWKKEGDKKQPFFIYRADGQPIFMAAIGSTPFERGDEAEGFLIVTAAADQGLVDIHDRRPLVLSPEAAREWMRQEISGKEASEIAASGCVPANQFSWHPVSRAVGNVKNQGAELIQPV

[4] = biological target: T4, yedK E105A (Escherichia coli (gene from BL21 …, UniProt P76318 2-222, E105A))
T4 sequence: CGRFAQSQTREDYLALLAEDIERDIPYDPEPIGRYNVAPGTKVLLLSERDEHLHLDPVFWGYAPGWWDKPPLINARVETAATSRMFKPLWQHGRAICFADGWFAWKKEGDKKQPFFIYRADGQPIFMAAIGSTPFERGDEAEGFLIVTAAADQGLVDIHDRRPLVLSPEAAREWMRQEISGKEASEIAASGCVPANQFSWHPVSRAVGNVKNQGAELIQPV

[5] = biological target: T5, yedK T149A (Escherichia coli (gene from BL21 …, UniProt P76318 2-222, T149A))
T5 sequence: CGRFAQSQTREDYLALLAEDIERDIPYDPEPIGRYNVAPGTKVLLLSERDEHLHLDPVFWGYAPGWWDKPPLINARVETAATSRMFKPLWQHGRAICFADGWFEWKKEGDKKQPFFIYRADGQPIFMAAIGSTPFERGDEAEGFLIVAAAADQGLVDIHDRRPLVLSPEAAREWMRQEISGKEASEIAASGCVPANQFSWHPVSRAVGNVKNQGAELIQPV

[6] = biological target: T6, yedK WT (Escherichia coli (gene from BL21 …, UniProt P76318 2-222))
T6 sequence: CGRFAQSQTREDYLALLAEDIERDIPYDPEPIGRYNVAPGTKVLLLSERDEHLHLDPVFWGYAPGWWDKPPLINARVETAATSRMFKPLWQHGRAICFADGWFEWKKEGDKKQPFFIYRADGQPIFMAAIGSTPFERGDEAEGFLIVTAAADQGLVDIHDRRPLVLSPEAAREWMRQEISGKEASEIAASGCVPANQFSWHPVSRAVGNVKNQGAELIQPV

[7] = biological target: T7, yedK R85A (Escherichia coli (gene from BL21 …, UniProt P76318 2-222, R85A))
T7 sequence: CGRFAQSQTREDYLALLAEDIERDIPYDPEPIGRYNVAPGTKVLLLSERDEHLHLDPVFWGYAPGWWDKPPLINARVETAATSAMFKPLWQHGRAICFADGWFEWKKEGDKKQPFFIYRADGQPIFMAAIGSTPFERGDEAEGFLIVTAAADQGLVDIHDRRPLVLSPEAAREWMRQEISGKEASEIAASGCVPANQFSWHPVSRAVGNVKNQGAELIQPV

[8] = biological target: T8, yedK H160A (Escherichia coli (gene from BL21 …, UniProt P76318 2-222, H160A))
T8 sequence: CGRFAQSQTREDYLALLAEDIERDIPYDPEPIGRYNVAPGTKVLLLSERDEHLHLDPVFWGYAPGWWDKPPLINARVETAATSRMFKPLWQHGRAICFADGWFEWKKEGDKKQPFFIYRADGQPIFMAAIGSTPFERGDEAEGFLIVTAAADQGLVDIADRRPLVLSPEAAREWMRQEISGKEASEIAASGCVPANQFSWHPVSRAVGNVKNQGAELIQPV

B1: ssDNA (ssDNA)
DNA: CGGTCGATTC
For B1, the binding result [1] was “no binding”, the binding result [2] was “no binding” and the Kd [3] was 4000 nM. The Kd [4] was 120 nM, the binding result [5] was “no binding” and the Kd [6] was 2200 nM. The Kd [7] was 16900 nM and the Kd [8] was 1400 nM.
